For ten sequences, Kd results are on record in the Immune Epitope Database (IEDB).

In experiment [1] the target is HLA-A*02:03. Put plainly: IEDB peptide-MHC binding, purified MHC/competitive/fluorescence; filed as Kd, often an IC50 or EC50 that approximates it; ≥ and ≤ were set here for values at or beyond the usual limits of such assays. The conditions noted are these: source organism: Human immunodeficiency virus 1.
A further experiment addresses HLA-A*30:01. The experiment is described as above. Particulars: source organism: Human immunodeficiency virus 1.
Experiment [2] concerns the target HLA-B*39:01. The experiment is described as above.
A further experiment concerns the target HLA-A*01:01. The experiment in a line: IEDB peptide-MHC binding, purified MHC/direct/fluorescence; filed as Kd, often an IC50 or EC50 that approximates it; ≥ and ≤ were set here for values at or beyond the usual limits of such assays.
Experiment [3] addresses HLA-A*02:01. The description is as above.
Experiment [4] deals with HLA-A*03:01. Described as above.
Another experiment concerns the target HLA-A*31:01. The experiment is described as above.
Experiment [5] has as its target HLA-A*69:01. The description is as above.
The target in the next experiment is HLA-B*07:02. The description is as above.
In a further experiment the target is HLA-B*08:01. Described as above. Particulars: source organism: Influenza A virus (A/camel/Mongolia/1982(H1N1)).
Another experiment deals with HLA-B*15:01. The description is as above.
The next experiment addresses HLA-B*15:09. The description is as above.
The next experiment deals with HLA-B*27:05. The description is as above.
Another experiment has as its target HLA-B*40:01. Described as above. Particulars: source organism: Influenza A virus (A/camel/Mongolia/1982(H1N1)).
A further experiment has as its target HLA-B*44:02. The experiment is described as above.
The target of experiment [6] is HLA-B*46:01. Described as above.
A further experiment addresses HLA-B*58:01. The experiment is described as above.
For the next experiment, the target named is HLA-A*11:01. The description is as above.
In experiment [7] the target is HLA-A*29:02. The experiment is described as above.
The target of experiment [8] is HLA-B*18:01. Described as above. The conditions noted are these: source organism: Mycobacterium tuberculosis.
In experiment [9] the target is HLA-B*39:01. The description is as above.
The target in experiment [10] is HLA-B*57:01. The description is as above.
The target of experiment [11] is HLA-B*57:01. The experiment in a line: IEDB peptide-MHC binding, purified MHC/competitive/radioactivity; filed as Kd, often an IC50 or EC50 that approximates it; ≥ and ≤ were set here for values at or beyond the usual limits of such assays.
For experiment [12], the target named is HLA-A*02:03. The experiment in a line: IEDB peptide-MHC binding, purified MHC/direct/fluorescence; filed as Kd, often an IC50 or EC50 that approximates it; ≥ and ≤ were set here for values at or beyond the usual limits of such assays. The conditions noted are these: source organism: Orthohantavirus negraense.
Experiment [13] concerns the target HLA-A*26:01. The experiment is described as above. The conditions noted are these: source organism: Orthohantavirus negraense.
In the next experiment the target is HLA-B*15:17. The experiment in a line: IEDB peptide-MHC binding, purified MHC/competitive/fluorescence; filed as Kd, often an IC50 or EC50 that approximates it; ≥ and ≤ were set here for values at or beyond the usual limits of such assays.
The target of experiment [14] is HLA-B*18:01. The description is as above.
The next experiment deals with HLA-B*27:03. Described as above.
Experiment [15] deals with HLA-B*46:01. The experiment is described as above.
For another experiment, the target named is HLA-B*51:01. Described as above.
The target in experiment [16] is HLA-B*57:01. The description is as above.
For experiment [17], the target named is HLA-A*26:01. The experiment is described as above.
Experiment [18] deals with HLA-A*02:01. The description is as above. The conditions noted are these: source organism: Bos taurus.
The target of experiment [19] is HLA-A*03:01. Described as above. Particulars: source organism: Bos taurus.
The target in another experiment is HLA-A*24:03. The experiment is described as above. The conditions noted are these: source organism: Bos taurus.
The target of experiment [20] is HLA-A*29:02. Described as above. Particulars: source organism: Bos taurus.
A further experiment concerns the target HLA-A*68:02. Described as above. Particulars: source organism: Bos taurus.
For experiment [21], the target named is HLA-A*69:01. The description is as above. Particulars: source organism: Bos taurus.
[22] abbreviates: source organism: Influenza A virus (A/camel/Mongolia/1982(H1N1)).
[23] abbreviates: source organism: Mycobacterium tuberculosis.
The mark [24] stands for this setting: source organism: Orthohantavirus negraense.
Setting [25] is: source organism: Tai Forest virus - Cote d'Ivoire, Cote d'Ivoire, 1994.
The mark [26] stands for this setting: source organism: Tai Forest ebolavirus.
The mark [27] stands for this setting: source organism: West Nile virus.

As a reminder, the Kd is the concentration at which binding is half-saturated.

Bounds are passed on as bounds.

Regarding EKLKSLYNTV, the dissociation constant Kd with HLA-A*02:03 [1] stood at 0.643 µM; in the experiment with HLA-A*30:01 it was 0.175 µM; with HLA-B*39:01 [2] (source organism: Human immunodeficiency virus 1), 2.81 µM.
Consider HIPEVCLKW, for which the dissociation constant Kd with HLA-A*01:01 (setting [22]), with HLA-A*02:01 [3] (setting [22]), with HLA-A*03:01 [4] (setting [22]), with HLA-A*31:01 (setting [22]), in the experiment with HLA-A*69:01 [5] (setting [22]) and in the experiment with HLA-B*07:02 (setting [22]) was ≥ 20 µM each time. The dissociation constant Kd in the experiment with HLA-B*08:01, in the experiment with HLA-B*15:01 (setting [22]), in the experiment with HLA-B*15:09 (source organism: Influenza A virus H3N2), in the experiment with HLA-B*27:05 (setting [22]), with HLA-B*40:01 and with HLA-B*44:02 (setting [22]) was ≥ 20 µM in each case. Moreover, the equilibrium dissociation constant (Kd) was ≥ 20 µM with HLA-B*46:01 [6] (setting [22]) and 0.121 µM with HLA-B*58:01 (setting [22]).
For EKAAWGVAL, the equilibrium dissociation constant (Kd) with HLA-A*01:01 (setting [23]), with HLA-A*02:01 [3] (setting [23]), with HLA-A*03:01 [4] (setting [23]), with HLA-A*11:01 (setting [23]), with HLA-A*29:02 [7] (setting [23]) and with HLA-A*31:01 (setting [23]) was ≥ 20 µM in each case. Moreover, the Kd is ≥ 20 µM with HLA-A*69:01 [5] (setting [23]); ≥ 20 µM with HLA-B*15:01 (setting [23]); ≥ 20 µM with HLA-B*18:01 [8]; ≥ 20 µM with HLA-B*27:05 (setting [23]); 0.052 µM in the experiment with HLA-B*39:01 [9] (setting [23]); ≥ 20 µM with HLA-B*44:02 (setting [23]). Moreover, the Kd with HLA-B*46:01 [6] (setting [23]) and with HLA-B*57:01 [10] (setting [23]) was ≥ 20 µM each time.
Consider PTAGVLARW, for which the dissociation constant Kd with HLA-B*57:01 [11] (source organism: Dengue virus 3 Martinique/1243/1999) is 0.0297 µM.
As for NIYETEFFM, the equilibrium dissociation constant (Kd) is ≥ 20 µM with HLA-A*02:03 [12]; ≥ 20 µM with HLA-A*03:01 [4] (setting [24]); 1.11 µM with HLA-A*26:01 [13]; ≥ 20 µM with HLA-B*15:17 (setting [24]); ≥ 20 µM in the experiment with HLA-B*18:01 [14] (setting [24]); ≥ 20 µM in the experiment with HLA-B*27:03 (setting [24]). Further, the Kd in the experiment with HLA-B*39:01 [2] (setting [24]), with HLA-B*46:01 [15] (setting [24]), with HLA-B*51:01 (setting [24]) and in the experiment with HLA-B*57:01 [16] (setting [24]) was ≥ 20 µM each time.
With FAEGVIAFL, the Kd with HLA-A*01:01 (setting [25]), with HLA-A*03:01 [4] (setting [25]), with HLA-A*11:01 (setting [25]), in the experiment with HLA-A*31:01 (setting [25]), with HLA-B*07:02 (setting [25]) and with HLA-B*15:01 (setting [25]) was ≥ 20 µM throughout. Further, the Kd with HLA-B*27:05 (setting [25]) is ≥ 20 µM; in the experiment with HLA-B*39:01 [9] (setting [25]), 0.539 µM; with HLA-B*44:02 (setting [25]), ≥ 20 µM; in the experiment with HLA-B*46:01 [6] (setting [25]) it was ≥ 20 µM; with HLA-B*57:01 [10] (setting [25]), ≥ 20 µM; with HLA-B*58:01 (setting [25]) it was ≥ 20 µM. The dissociation constant (Kd) with HLA-A*26:01 [17] (setting [26]), with HLA-B*18:01 [14] (setting [26]) and with HLA-B*27:03 (setting [26]) was ≥ 20 µM throughout.
YRKEQQNAV registered a Kd in the experiment with HLA-B*39:01 [9] (source organism: Influenza A virus (A/Belfast/53582/2004(H3N?))) of 0.62 µM.
As for KLGEGFKSL, the equilibrium dissociation constant (Kd) with HLA-A*02:01 [18] was 0.0151 µM; with HLA-A*03:01 [19], ≥ 20 µM; with HLA-A*24:03, ≥ 20 µM; in the experiment with HLA-A*26:01 [17] (source organism: Bos taurus), ≥ 20 µM; with HLA-A*29:02 [20], ≥ 20 µM; with HLA-A*68:02, ≥ 20 µM. Besides, the equilibrium dissociation constant (Kd) with HLA-A*69:01 [21], in the experiment with HLA-B*15:17 (source organism: Bos taurus), in the experiment with HLA-B*18:01 [14] (source organism: Bos taurus), in the experiment with HLA-B*27:03 (source organism: Bos taurus), with HLA-B*39:01 [2] (source organism: Bos taurus) and with HLA-B*46:01 [15] (source organism: Bos taurus) was ≥ 20 µM each time. Also, the equilibrium dissociation constant (Kd) in the experiment with HLA-B*51:01 (source organism: Bos taurus) and with HLA-B*57:01 [16] (source organism: Bos taurus) was ≥ 20 µM in each case.
On to STSLSMTCIA, for which the Kd with HLA-B*57:01 [11] (source organism: Dengue virus 1 Brazil/97-11/1997) came out at 2.08 µM.
As for GRGPIRFVL, the equilibrium dissociation constant (Kd) in the experiment with HLA-A*01:01 (setting [27]), with HLA-A*02:01 [3] (setting [27]), with HLA-A*03:01 [4] (setting [27]), with HLA-A*11:01 (setting [27]), with HLA-A*29:02 [7] (setting [27]) and in the experiment with HLA-A*31:01 (setting [27]) was ≥ 20 µM in each case. Moreover, the Kd with HLA-A*69:01 [5] (setting [27]), in the experiment with HLA-B*07:02 (setting [27]), in the experiment with HLA-B*15:01 (setting [27]), with HLA-B*15:09 (setting [27]), with HLA-B*44:02 (setting [27]) and with HLA-B*46:01 [6] (setting [27]) was ≥ 20 µM each time. For the same sequence, the dissociation constant Kd with HLA-B*57:01 [10] (setting [27]) and with HLA-B*58:01 (setting [27]) was ≥ 20 µM throughout.
